Results: paper PMC10376177, “Comparison of Fungal Thermophilic and Mesophilic Catalase–Peroxidases for Their Antioxidative Properties” (Antioxidants, 2023)

Biological target: the molecule itself
Test: native gel or EMSA

B1: MagKatG1, mesophilic catalase–peroxidase from Magnaporthe oryzae (enzyme)
chain: MGECPLRTANVAGGGTRNRDWWPNTLKLNILRQHTEATNPYDPNFDYAEAFKSLDYEGLKKDLRALMTDSQEYWPADFGHYGGLFVRMAWHSAGTYRVMDGRGGGGQGQQRFAPLNSWPDNVSLDKARRLLWPIKQKYGNKISWADLMLLTGNVALEDMGFKTFGFAGGRPDTWEADESTYWGGETTWLGNEVRYSSGNEGHKESGVIDGSESKKGHKDIHTRDLEKPVSAAHMGLIYVNPEGPDGIPDPVAAARDIRTTFSRMAMNDEETVALIAGGHTVGKTHGAAPSDNVGPEPEAAPIENQGLGWSNKHGSGKGPDTITSGLEVIWTKEPAKFTMNYLEYLFKYEWELTKSPAGANQWVAKNAEEFIPDAFDPSKKHKPRMLTTDLSLRFDPEYEKISRRFLENPEQFKDAFARAWFKLLHRDMGPRSRWLGPEVPKETLLWEDPIPTPDHPIIDGSDVDSLKKAILATGVAPSKLIQTAWASASTFRGGDKRGGANGARIRLEPQNKWEVNNPQQLAEVLKALEGVKADFEKSGKKVSIADLIVLAGVAAVEQAAGVPVPFTPGRGDATQEQTDVESFTHLEPAADAFRNYGKGTSRVTTEQIMVDRAQQLTLTAPELTVLVGGLRVLGANYDGSSHGVWTDKPGKLTNDFFVTLLDPYTSWKSVDGEVFEGTNSKSGKKLTGTRADLVFGSHSELRALAEVYGSADGQQKFTKDFVAAWDKVMNLDRFDVRRGIYDETRLKSKL
notes: also called Magnaporthe oryzae katG
stoichiometry N: 2
